According to article PMC10992290, “In vitro biosynthesis of ATP from adenosine and polyphosphate” (Bioresources and Bioprocessing, 2021):

What was measured:
Test in all cases: HPLC nucleotide assay
AtAdk = target: T1, AtAdk (Arabidopsis thaliana, UniProt Q9LZG0); type: biochemical; details: phosphate donor; 10 mM adenosine, 20 mM MgCl2, Tris-HCl pH 8.0, 45 °C
T1 construct: gene ADK2

HPLC nucleotide assay [1] = substrate: Nc1ncnc2c1ncn2[C@@H]1O[C@H](COP(=O)(O)O)[C@@H](O)[C@H]1O; type: biochemical, Lampropedia hyalina; details: polyP6 as phosphate donor, MgCl2, Tris-HCl pH 8.0, 37 °C (routine assay)
Text: HPLC nucleotide assay on LhPPK

HPLC nucleotide assay [2] = substrate: Nc1ncnc2c1ncn2[C@@H]1O[C@H](COP(=O)(O)OP(=O)(O)O)[C@@H](O)[C@H]1O; type: biochemical, Sulfurovum lithotrophicum; details: polyP6 as phosphate donor, MgCl2, Tris-HCl pH 8.0, 37 °C (routine assay)
Text: HPLC nucleotide assay on SlPPK

T1 sequence (Q9LZG0 whole entry): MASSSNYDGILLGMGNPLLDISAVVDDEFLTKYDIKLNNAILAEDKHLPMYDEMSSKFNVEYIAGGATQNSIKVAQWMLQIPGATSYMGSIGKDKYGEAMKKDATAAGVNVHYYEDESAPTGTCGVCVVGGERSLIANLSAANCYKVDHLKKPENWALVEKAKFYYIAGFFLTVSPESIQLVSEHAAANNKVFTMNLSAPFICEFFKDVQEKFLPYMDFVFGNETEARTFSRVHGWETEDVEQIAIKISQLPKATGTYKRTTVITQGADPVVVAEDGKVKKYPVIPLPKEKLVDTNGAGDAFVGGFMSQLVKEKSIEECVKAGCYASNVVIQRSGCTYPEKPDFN

Molecule: Nc1ncnc2c1ncn2[C@@H]1O[C@H](COP(=O)(O)OP(=O)(O)OP(=O)(O)O)[C@@H](O)[C@H]1O [ATP]
- HPLC nucleotide assay (AtAdk): conversion of adenosine to AMP by AtAdk, which required ATP as a phosphate donor

B1: LhPPK (Lampropedia hyalina DSM 16112) (protein)
chain: MTRKESPPMEAFKKYRISPKNTLKDIDPSDKPFSFGTKKDELQRLDELAVELDDLQNTLYAGKRRKVLLILQGLDTSGKDGTIRWVFSRTSPLGVHVAAFKAPSERERAHDFLWRCHAVVPANGELTVWNRSHYEDVLVPPVEGWIDKAETQRRYGHINDFERLLSETGTTIVKCMLHISNEEQRERLQDRLKDPGKNWKFAADDLSTRAKWNDYQRAYEQALQATSTPHAPWYVIPANSKRHRNLMVAQLLVQTLRDMKLRLPPPNLAFKDLVVN
- Km (HPLC nucleotide assay [1]): 5.70 mM
- Vmax (HPLC nucleotide assay [1]): 860 µM/min
- kcat (HPLC nucleotide assay [1]): 92 s⁻¹
- kcat/Km (HPLC nucleotide assay [1]): 16100 M⁻¹ s⁻¹

B2: SlPPK (Sulfurovum lithotrophicum) (protein)
chain: MKKNIYKKELYKLQVELVKFQKYVIEENVAVCLVLEGRDTAGKDGTIKRFTEHLSPREARTVALGVPSDKEKKSWYFQRYVPHLPSAGEIVFFNRSWYNRAGVEKVMGFCTKKQYKAFMEEVGSFEQMLTHSNIRFFKYYLDITKKEQKKRLEARKTDPLKQWKLSPIDAKAQKMWDAYSKARDDMFNKTSFIYAPWYVVHTDDKKEARINIMKHFLSLNDYPDKDKALLVYDHDVICKFDPVCYEKEMIAP
- Km (HPLC nucleotide assay [2]): 0.61 mM
- Vmax (HPLC nucleotide assay [2]): 1400 µM/min
- kcat (HPLC nucleotide assay [2]): 140 s⁻¹
- kcat/Km (HPLC nucleotide assay [2]): 230000 M⁻¹ s⁻¹
